Measurements: patent CN110903391A (DONGDA BIOTECHNOLOGY SUZHOU CO LTD, dated 2020)

What was measured:
带组氨酸标签的PD-L1抗原 = 带组氨酸标签的PD-L1抗原 (UniProt Q9NZQ7); experiment: Biacore 3000 SPR, antibody captured by anti-human IgG on CM5, PD-L1-His as analyte
PD-L1 on 293T-PD-L1细胞 [1] = target: T1, PD-L1 on 293T-PD-L1细胞 (human, UniProt Q9NZQ7 19-290); experiment: FACS on 293T-PD-L1 cells
T1 construct: whole, on cells; Construct not described

PD-L1-ECD-hFc [2] = target: T2, PD-L1-ECD-hFc (human, UniProt Q9NZQ7 19-238); experiment: ELISA, PD-L1-ECD-hFc coated
T2 construct: extracellular domain; Coated on the ELISA plate; also called PD-L1-hFc; PD-L1-hFc蛋白; not shown: hFc: human Fc

PD-L1 on 293T-PD-L1细胞 [3] = target: T1, PD-L1 on 293T-PD-L1细胞; experiment: competition FACS on 293T-PD-L1 cells, competitor PD-1-biotin
PD-L1-ECD-hFc [4] = target: T2, PD-L1-ECD-hFc; experiment: competition ELISA, PD-L1-ECD-hFc coated, competitor PD-1-biotin

T2 sequence (Q9NZQ7 19-238): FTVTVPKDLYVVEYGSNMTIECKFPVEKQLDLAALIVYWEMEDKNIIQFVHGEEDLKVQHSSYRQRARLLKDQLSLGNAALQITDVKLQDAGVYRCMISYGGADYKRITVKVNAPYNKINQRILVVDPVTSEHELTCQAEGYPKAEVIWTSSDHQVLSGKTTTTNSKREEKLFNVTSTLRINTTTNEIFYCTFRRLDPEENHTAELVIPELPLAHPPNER
T1 sequence (Q9NZQ7 19-290): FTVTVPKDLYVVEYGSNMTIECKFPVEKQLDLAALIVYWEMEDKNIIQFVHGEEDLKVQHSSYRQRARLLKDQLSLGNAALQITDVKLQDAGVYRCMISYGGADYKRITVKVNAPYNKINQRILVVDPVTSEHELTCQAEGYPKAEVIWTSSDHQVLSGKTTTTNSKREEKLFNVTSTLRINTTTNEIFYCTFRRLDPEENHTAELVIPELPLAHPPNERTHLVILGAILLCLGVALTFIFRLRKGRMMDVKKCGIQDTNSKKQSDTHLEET

| Binder | fold increase of affinity against humanized 6C8D8 (带组氨酸标签的PD-L1抗原) | EC50 (PD-L1 on 293T-PD-L1细胞 [1]) [µg/mL] | EC50 (PD-L1-ECD-hFc [2]) [µg/mL] | IC50 (PD-L1 on 293T-PD-L1细胞 [3]) [µg/mL] | IC50 (PD-L1-ECD-hFc [4]) [µg/mL] | fold increase of affinity against humanized 10E9C7G2 (带组氨酸标签的PD-L1抗原) |
| --- | --- | --- | --- | --- | --- | --- |
| 6C8D8人源化完整抗体 (antibody, human IgG1, kappa, V domains shown, Humanized IgG1; expressed in 293 cells; also called hu6C8D8; 人源化的6C8D8抗体) VH: QITLKESGPTLVKPTQTLTLTCTVSGFSLTSYDISWIRQPPGKALEWLGVIWTGGGTNYNSAFMSRLTITKDNSKNQVVLTMTNMDPVDTATYYCVRGRDWDFDYWGQGTLVTVSS VL: EIVLTQSPDFQSVTPKEKVTITCRASQSIGTSIHWYQQKPDQSPKLLIKYASESISGVPSRFSGSGSGTDFTLTINSLEAEDAATYYCQQSNSWPFTFGQGTKLEIKR |  | 0.0413 | 0.00224 | 0.0437 | 0.139 |  |
| 10E9C7G2人源化完整抗体 (antibody, human IgG1, kappa, V domains shown, Humanized IgG1; expressed in 293 cells; also called hu10E9C7G2; 人源化的10E9C7G2抗体) VH: QVQLQQSGPGLVKPSQTLSLTCAISGDSITSGYWNWIRQSPSRGLEYMGYISYTGSTYYNLSLKSRITINRDTSKNQYSLQLNSVTPEDTAVYYCARGDYGSDWPPWFAYWGQGTTVTVSS VL: DIQMTQSPSSLSASVGDRVTITCSASSSISSNSLQWYQQKPGKAPKLLIYRTTNLPSGVPSRFSGSGSGTDYTLTISSLQPEDFATYYCQQSSGLPLTFGQGTKLEIKR |  | 0.0392 | 0.000684 | 0.0327 | 0.147 |  |
| 6F9B1A6人源化完整抗体 (antibody, human IgG1, kappa, V domains shown, Humanized IgG1; expressed in 293 cells; also called hu6F9B1A6; 人源化的6F9B1A6抗体) VH: QVQLVQSGAEVKKPGSSVKVSCKASGYTFIGYTVHWVRQAPGQGLEWIGWFYPGSGSIKYNEKFKDRATLTADKSTSTVYMELSSLRSEDTAVYYCARHGTGKFNYFDVWGQGTTVTVSS VL: DIQLTQSPSFLSASVGDRVTITCRASSTVSYMHWYQQKPGKAPKPWIYATFNLASGVPSRFSGSGSGTEYTLTISSLQPEDFATYYCQPWSSYPLTFGQGTKLEIKR |  | 0.0412 | 0.00448 | 0.0365 | 0.108 |  |

The next lines start with the values.

| fold increase of affinity against humanized 6C8D8 (带组氨酸标签的PD-L1抗原) | EC50 (PD-L1 on 293T-PD-L1细胞 [1]) [µg/mL] | EC50 (PD-L1-ECD-hFc [2]) [µg/mL] | IC50 (PD-L1 on 293T-PD-L1细胞 [3]) [µg/mL] | IC50 (PD-L1-ECD-hFc [4]) [µg/mL] | fold increase of affinity against humanized 10E9C7G2 (带组氨酸标签的PD-L1抗原) | Binder |
| --- | --- | --- | --- | --- | --- | --- |
| 9.25 倍 (fold) |  |  |  |  |  | 亲和力成熟的人源化6C8D8抗体(重链Seq ID 43, 轻链Seq ID 44) (antibody, V domains shown) VH: QITLKESGPTLVKPTQTLTLTCTVSGFSLTSYDISWIRQPPGKALEWLGVIWTGGGTTYNSAFMSRLTITKDNSKNQVVLTMTNMDPVDTATYYCVRGRDWDFDYWGQGTLVTVSS VL: EIVLTQSPDFQSVTPKEKVTITCRASQSIGTSIHWYQQKPDQSPKLLIKYVSESISGVPSRFSGSGSGTDFTLTINSLEAEDAATYYCQQSNSWPFTFGQGTKLEIK |
|  |  |  |  |  | 7.2 倍 (fold) | 亲和力成熟的人源化10E9C7G2抗体(重链Seq ID 48, 轻链Seq ID 50) (antibody, V domains shown) VH: QVQLQQSGPGLVKPSQTLSLTCAISGDSVSSGYWNWIRQSPSRGLEYMGYISYTGSTYYSLSLKSRITINRDTSKNQYSLQLNSVTPEDTAVYYCARGDYGSDWPPWFAYWGQGTTVTVSS VL: DIQMTQSPSSLSASVGDRVTITCSASISISSNSLQWYQQKPGKAPKLLIYRTTNLPSGVPSRFSGSGSGTDYTLTISSLQPEDFATYYCQQSGGLPLTFGQGTKLEIK |
|  |  |  |  |  | 4.8 倍 (fold) | 亲和力成熟的人源化10E9C7G2抗体(重链Seq ID 49, 轻链Seq ID 50) (antibody, V domains shown) VH: QVQLQQSGPGLVKPSQTLSLTCAISGDSVSSGYWNWIRQSPSRGLEYMGYISYTGSTYYDLSLKSRITINRDTSKNQYSLQLNSVTPEDTAVYYCARGDYGSDWPPWFAYWGQGTTVTVSS VL: DIQMTQSPSSLSASVGDRVTITCSASISISSNSLQWYQQKPGKAPKLLIYRTTNLPSGVPSRFSGSGSGTDYTLTISSLQPEDFATYYCQQSGGLPLTFGQGTKLEIK |
